Reference: US8715959B2, “Substitution mutant receptors and their use in a nuclear receptor-based inducible gene expression system” (priority 2001, dated 2014)
Residue numbers refer to the chain shown, from its start. In names and notes the source's numbering stands.

B1: V107I/YL27E/R175E: CfEcR-DEF LBD triple mutant, V107I, Y127E and R175E (protein, listed as Choristoneura fumiferana)
chain: LTANQQFLIARLIWYQDGYEQPSDEDLKRITQTWQQADDENEESDTPFRQITEMTILTVQLIVEFAKGLPGFAKISQPDQITLLKACSSEVMMLRVARRYDAASDSILFANNQAYTRDNYRKAGMAEVIEDLLHFCRCMYSMALDNIHYALLTAVVIFSDRPGLEQPQLVEEIQEYYLNTLRIYILNQLSGSARSSVIYGKILSILSELRTLGMQNSNMCISLKLKNRKLPPFLEEIWDV
B2: T52V/V107I/R175E: CfEcR-DEF LBD triple mutant, T52V, V107I and R175E (protein, listed as Choristoneura fumiferana)
chain: B1 chain with T52V, E127Y
B3: V96A/V107I/R175E: CfEcR-DEF LBD triple mutant, V96A, V107I and R175E (protein, listed as Choristoneura fumiferana)
chain: B1 chain with V96A, E127Y
B4: T52A/V107I/R175E: CfEcR-DEF LBD triple mutant, T52A, V107I and R175E (protein, listed as Choristoneura fumiferana)
chain: B1 chain with T52A, E127Y
B5: T52V: CfEcR-DEF LBD substitution mutant, Threonine (T) to Valine (V) (protein, listed as Choristoneura fumiferana)
chain: B1 chain with T52V, I107V, E127Y, E175R
B6: T52I: CfEcR-DEF LBD substitution mutant, Threonine (T) to Isoleucine (I) (protein, listed as Choristoneura fumiferana)
chain: B1 chain with T52I, I107V, E127Y, E175R
B7: V96D: CfEcR-DEF LBD substitution mutant, Valine (V) to Aspartic Acid (D) (protein, listed as Choristoneura fumiferana)
chain: B1 chain with V96D, I107V, E127Y, E175R
B8: E20A: CfEcR-DEF LBD substitution mutant, Glutamic Acid (E) to Alanine (A) (protein, listed as Choristoneura fumiferana)
chain: B1 chain with E20A, I107V, E127Y, E175R
B9: M92A: CfEcR-DEF LBD substitution mutant, Methionine (M) to Alanine (A) (protein, listed as Choristoneura fumiferana)
chain: B1 chain with M92A, I107V, E127Y, E175R
B10: V59A: CfEcR-DEF LBD substitution mutant, Valine (V) to Alanine (A) (protein, listed as Choristoneura fumiferana)
chain: B1 chain with V59A, I107V, E127Y, E175R
B11: I62A: CfEcR-DEF LBD substitution mutant, Isoleucine (I) to Alanine (A) (protein, listed as Choristoneura fumiferana)
chain: B1 chain with I62A, I107V, E127Y, E175R
B12: M93A: CfEcR-DEF LBD substitution mutant, Methionine (M) to Alanine (A) (protein, listed as Choristoneura fumiferana)
chain: B1 chain with M93A, I107V, E127Y, E175R
B13: R95A: CfEcR-DEF LBD substitution mutant, Arginine (R) to Alanine (A) (protein, listed as Choristoneura fumiferana)
chain: B1 chain with R95A, I107V, E127Y, E175R
B14: F109A: CfEcR-DEF LBD substitution mutant, Phenylalanine (F) to Alanine (A) (protein, listed as Choristoneura fumiferana)
chain: B1 chain with I107V, F109A, E127Y, E175R
B15: Y120A: CfEcR-DEF LBD substitution mutant, Tyrosine (Y) to Alanine (A) (protein, listed as Choristoneura fumiferana)
chain: B1 chain with I107V, Y120A, E127Y, E175R
B16: A123F: CfEcR-DEF LBD substitution mutant, Alanine (A) to Phenylalanine (F) (protein, listed as Choristoneura fumiferana)
chain: B1 chain with I107V, A123F, E127Y, E175R
B17: M125A: CfEcR-DEF LBD substitution mutant, Methionine (M) to Alanine (A) (protein, listed as Choristoneura fumiferana)
chain: B1 chain with I107V, M125A, E127Y, E175R
B18: L223A: CfEcR-DEF LBD substitution mutant, Leucine (L) to Alanine (A) (protein, listed as Choristoneura fumiferana)
chain: B1 chain with I107V, E127Y, E175R, L223A
B19: L230A: CfEcR-DEF LBD substitution mutant, Leucine (L) to Alanine (A) (protein, listed as Choristoneura fumiferana)
chain: B1 chain with I107V, E127Y, E175R, L230A
B20: L234A: CfEcR-DEF LBD substitution mutant, Leucine (L) to Alanine (A) (protein, listed as Choristoneura fumiferana)
chain: B1 chain with I107V, E127Y, E175R, L234A
B21: W238A: CfEcR-DEF LBD substitution mutant, Tryptophan (W) to Alanine (A) (protein, listed as Choristoneura fumiferana)
chain: B1 chain with I107V, E127Y, E175R, W238A

test system: CfEcR-DEF; test: GAL4/mutant CfEcR-DEF + VP16/LmUSP-EF GAL4-driven luciferase reporter transactivation in NIH3T3 cells; type: cell-based, Choristoneura fumiferana; details: 10 nM GS™-E non-steroidal ligand; NIH3T3 cells; relative to Gal4/wild-type CfEcR-DEF switch activity
Method: DNAs corresponding to the various switch constructs outlined in Example 1, specifically switches 1.1-1.13, were transfected into mouse NIH3T3 cells (ATCC) or L57 cells (Dr. Peter Cherbas; Indiana University) as follows. Standard methods for culture and maintenance of the cells were followed. […] Superfect™ (Qiagen Inc.) was used for 3T3 cells and Lipofectamine™ (LifeTechnologies) was used for L57 cells as the transfection reagents. For 12-well plates, 4 μl of Superfect™ or Lipofectamine™ was mixed with 100 μl of growth medium. One μg of reporter construct and 0.25 μg of each receptor construct of the receptor pair to be analyzed were added to the transfection mix. […] The cells were harvested and reporter activity was assayed.
Cells were harvested 40 hours after adding ligands. […] Twenty μl of lysate were assayed.
Briefly, Applicants mutated amino acid residues predicted to be critical for ecdysteroid binding into alanine and created GAL4/mutantCfEcR-DEF cDNA gene expression cassettes as described in Example 1 above using the Quikchange PCR-mediated site-directed mutagenesis kit (Stratagene, La Jolla, Calif.). The mutated and the WT cDNAs were tested in GAL4-driven luciferase reporter assays.
DNAs corresponding to the various switch constructs outlined in Example 1, specifically switches 1.1-1.2, were transfected into mouse NIH3T3 cells (ATCC) as follows. […] Two μl of Superfect™ was mixed with 100 μl of growth medium and 50 ng of either GAL4/wild-type EcR or Gal4/mutant EcR cassette, 50 ng of VP16/LmUSP-EF and 200 ng of pFRLuc were added to the transfection mix. […] The cells were harvested and reporter activity was assayed as described above.

Molecule | Fold increase over WT, 10 nM GS™-E [fold]
B1 | 124.3
B2 | 62.8
B3 | 21.1
B4 | 2.3

same assay, conditions: 10 nM PonA steroidal ligand; NIH3T3 cells; relative to Gal4/wild-type CfEcR-DEF switch activity

Molecule | Fold increase over WT, 10 nM PonA [fold]
B1 | 122.3
B2 | 136.6
B3 | 1005.1
B4 | 20.3

same assay, conditions: 2.5 μM GS™-E non-steroidal ligand; NIH3T3 cells; relative to Gal4/wild-type CfEcR-DEF switch activity

Molecule | Fold increase over WT, 2.5 μM GS™-E [fold]
B5 | 17.3
B6 | 8
B7 | 3.07
B8 | 0.9
B9 | 0.7
B10 | 0.47
B11 | 0.12
B12 | 0.46
B13 | 0.4
B14 | 0.22
B15 | 0.001
B16 | 0.09
B17 | 0.005
B18 | 0.118
B19 | 0.001
B20 | 0.001
B21 | 0.002

same assay, conditions: 2.5 μM PonA steroidal ligand; NIH3T3 cells; relative to Gal4/wild-type CfEcR-DEF switch activity

Molecule | Fold increase over WT, 2.5 μM PonA [fold]
B5 | 35.7
B6 | 8
B7 | 3.1
B8 | 0.35
B9 | 0.39
B10 | 0.002
B11 | 0.004
B12 | 0.07
B13 | 0.006
B14 | 0.005
B15 | 0.006
B16 | 0.005
B17 | 0.007
B18 | 0.007
B19 | 0.006
B20 | 0.006
B21 | 0.013
